This note sets out measurements from publication PMC3670040, “Structure of Lipid Kinase p110β/p85β Elucidates an Unusual SH2-Domain-Mediated Inhibitory Mechanism” (Molecular Cell, 2011).

For assay [1], the target named is T1, p110β (Mus musculus, UniProt Q8BTI9).
T1 construct: Mouse His6-p110β(1-1064)/p85β-icSH2(423-722) complex; made in house; host or cells: Sf9 insect cells (baculovirus co-infection)
As to the kind of experiment: Transcreener ADP formation (fluorescence polarization), diC8-PIP2/POPS liposomes, mouse p110β complexes. The class given is biochemical. As to conditions: 10 μM PDGFR pY2; Figure 3A. As for the experimental part: (§1) Figure 1 Inhibition of p110β by p85-Type Regulatory Subunits and Activation of the Complexes by RTK Phosphopeptide (A) Domain organization of p110β and the regulatory subunits p85α, p85β, and p55γ. The color scheme for the domains is used for all figures, unless otherwise stated. […] The inhibition is released upon addition of the 10 μM PDGFR pY2. […] The y axis is expressed as a change in fluorescence polarization (ΔmP), which is obtained by subtracting the observed polarization for the construct at a given enzyme concentration from the maximum fluorescence polarization for that construct. The plateau in these assays arises due to the competitive nature of the ADP detection system, based on displacement of ADP-Alexa 633 tracer from the ADP^2-antibody by ADP generated during the PI3K assay (see Supplemental Experimental Procedures). All measurements were done in triplicates, and the error bars indicate the standard error of the mean (SEM). (C) Kinase activity of p110β/p85β complexes with monomeric substrate (75 μM diC8-PIP2) in the presence and absence of pY2; y axis as in (B). (D) Basal- and pY2-stimulated activities of 35 nM PI3K complexes in the absence of lipids (ATP hydrolysis). Activities are given as percent of ATP converted to ADP using the Transcreener assay. Bars indicate SEM. TEXT PRINTED IN THE PICTURE: (B) p110β/nic: EC50 (nM): 15 | (B) p110β/nic+pY2: EC50 (nM): 0.14 | (B) p110β/ic: EC50 (nM): 1 | (B) p110β/ic+pY2: EC50 (nM): 0.21 | (B) p110β/ni: EC50 (nM): 0.84 | (B) p110β/ni+pY2: EC50 (nM): 0.24 | (B) p110β/i: EC50 (nM): 0.12 | (B) p110β/i+pY2: EC50 (nM): 0.14 | (B) ΔABD-p110β: EC50 (nM): 0.06 | (B) ΔABD-p110β+pY2: EC50 (nM): 0.05 | (C) p110β/nic: EC50 (nM): 24 | (C) p110β/nic+pY2: EC50 (nM): 3 | (C) p110β/ic: EC50 (nM): 5 | (C) p110β/ic+pY2: EC50 (nM): 2 | (C) p110β/ni: EC50 (nM): 4 | (C) p110β/ni+pY2: EC50 (nM): 2 […]
(§2) Figure 3 Mutation Y677A in p85β-cSH2 Releases Inhibitory Effect on p110β (A) Kinase activity (ADP formation) of p110β in a complex with p85β-icSH2-Y677A (Y677A-ic) compared to the wild-type complex (ic) in the absence and presence of 10 μM PDGFR pY2 (ADP formation on the y axis expressed as in Figure 1B). (B) Comparison of p110β activities of 1 nM complexes with wild-type or Y677 mutant nicSH2 or icSH2 (activity shown as in Figure 1D). TEXT PRINTED IN THE PICTURE: (A) p110β/ic: EC50 (nM): 1 | (A) p110β/ic+pY2: EC50 (nM): 0.15 | (A) p110β/ic-Y677A: EC50 (nM): 0.11 | (A) p110β/ic-Y677A+pY2: EC50 (nM): 0.08 […]
(§3) The lipid kinase activity was determined using the Transcreener ADP2 FP Assay (BellBrook Labs, Madison, WI) according to manufacturer‟s specifications. This non-radioactive assay measures activity by quantitating the amount of ADP formed. The ADP formed by PI3K competes with fluorescent ADP tracer for binding to an anti-ADP antibody, thereby decreasing fluorescence polarization. Because of the competitive nature of this assay, the change in fluorescence polarization signal is not a linear function of enzyme activity, and a convenient measure of enzyme activity is the EC50, or the concentration of enzyme necessary to give half-maximal inhibition of labeled ADP binding to the antibody, for a given concentration of substrate and a fixed time of reaction at initial rate. While activity of two different enzyme constructs can be compared at a fixed concentration of protein and a fixed concentration of substrate, the assay is most reliable when about 2%-10% of the ATP is […]
(§4) Consequently, the EC50 provides a convenient way to compare the activities of various constructs. Briefly, reactions were performed in 10 μl volume in 384-well black plates (Corning 3676) and they contained final 100 μM ATP, 75 μM lipids and a series of protein concentration varying from 0.001 nM to 2.5 μM. Serial dilutions of protein heterodimers were prepared in buffer F (50 mM Hepes pH 7.5, 100 mM NaCl, 0.03% CHAPS, 4 mM DTT) in 5 μl […]
volume. […]
(Fluorescence polarisation rises when a labelled molecule tumbles more slowly, as on binding a larger partner.)

For assay [2], the system named is p110β. Described as above. The class given is biochemical. As to conditions: for EC50: Figure 3A, Y677A vs wild-type, diC8-PIP2/POPS, 100 μM ATP, 1 h, room temperature. The method, then: as §1, §2, §3, §4
volume. […]

Read-outs that look alike come from different tables or passages of the source.

T1 sequence (Q8BTI9 whole entry, one chain of several): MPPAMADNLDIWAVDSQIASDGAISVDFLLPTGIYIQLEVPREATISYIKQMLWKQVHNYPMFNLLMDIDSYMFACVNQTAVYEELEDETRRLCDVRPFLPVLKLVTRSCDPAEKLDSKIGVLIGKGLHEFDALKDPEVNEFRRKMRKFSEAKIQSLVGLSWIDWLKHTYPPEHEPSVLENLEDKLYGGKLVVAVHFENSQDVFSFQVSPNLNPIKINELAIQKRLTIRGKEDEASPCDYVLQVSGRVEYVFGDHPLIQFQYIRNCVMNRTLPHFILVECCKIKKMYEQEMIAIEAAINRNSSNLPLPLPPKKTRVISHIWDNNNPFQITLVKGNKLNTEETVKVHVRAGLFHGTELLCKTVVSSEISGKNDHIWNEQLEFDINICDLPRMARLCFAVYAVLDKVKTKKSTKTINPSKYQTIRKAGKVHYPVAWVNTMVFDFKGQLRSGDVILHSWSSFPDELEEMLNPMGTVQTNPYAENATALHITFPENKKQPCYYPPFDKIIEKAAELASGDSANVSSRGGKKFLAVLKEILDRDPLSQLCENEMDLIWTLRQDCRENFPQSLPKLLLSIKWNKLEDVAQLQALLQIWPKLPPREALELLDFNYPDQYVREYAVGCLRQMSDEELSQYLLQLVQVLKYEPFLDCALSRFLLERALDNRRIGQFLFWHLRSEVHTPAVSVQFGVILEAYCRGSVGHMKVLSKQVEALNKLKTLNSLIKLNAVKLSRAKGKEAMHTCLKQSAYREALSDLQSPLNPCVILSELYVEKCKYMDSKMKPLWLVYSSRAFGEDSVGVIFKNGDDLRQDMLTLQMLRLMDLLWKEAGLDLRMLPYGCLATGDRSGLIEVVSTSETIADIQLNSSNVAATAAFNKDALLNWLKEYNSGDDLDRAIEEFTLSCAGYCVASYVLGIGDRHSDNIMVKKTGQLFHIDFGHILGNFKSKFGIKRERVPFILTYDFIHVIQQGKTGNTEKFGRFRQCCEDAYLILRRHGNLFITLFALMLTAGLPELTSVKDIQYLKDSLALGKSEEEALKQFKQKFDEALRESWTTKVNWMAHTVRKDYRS

B1: p110β/ic-Y677A: p110β in a complex with p85β-icSH2-Y677A (protein)
chain: QQDQVVKEDSIEAVGAQLKVYHQQYQDKSREYDQLYEEYTRTSQELQMKRTAIEAFNETIKIFEEQGQTQEKCSKEYLERFRREGNEKEMQRILLNSERLKSRIAEIHESRTKLEQDLRAQASDNREIDKRMNSLKPDLMQLRKIRDQYLVWLTQKGARQRKINEWLGIKNETEDQYSLMEDEDALPHHEERTWYVGKINRTQAEEMLSGKRDGTFLIRESSQRGCYACSVVVDGDTKHCVIYRTATGFGFAEPANLYGSLKELVLHYQHASLVQHNDALTVTLAHPVRAPGPGPPSAAR
For B1, in the assay with p110β [1], the “activation by pY2” value is “not activated by pY2”. The EC50 in the assay on p110β [2] (absence of pY2, read-out: EC50 (enzyme concentration), kinase activity, basal) turned out to be 110 pM; in the assay on p110β [2] (with 10 μM PDGFR pY2, read-out: EC50 (enzyme concentration), kinase activity, + pY2), 80 pM. Further, in the assay with p110β [2] (absence of pY2, ADP formation, Figures 3A, 3B), the “basal activity versus wild-type complex” value is recorded as “more active than the wild-type p110β/p85β-icSH2”.
